Results on one molecule are retold here after paper PMC9475456, “DDX56 transcriptionally activates MIST1 to facilitate tumorigenesis of HCC through PTEN-AKT signaling”.

For the data set, the target named is T1, DDX56 (His-DDX56) (human, UniProt Q9NY93 1-547).
T1 sequence: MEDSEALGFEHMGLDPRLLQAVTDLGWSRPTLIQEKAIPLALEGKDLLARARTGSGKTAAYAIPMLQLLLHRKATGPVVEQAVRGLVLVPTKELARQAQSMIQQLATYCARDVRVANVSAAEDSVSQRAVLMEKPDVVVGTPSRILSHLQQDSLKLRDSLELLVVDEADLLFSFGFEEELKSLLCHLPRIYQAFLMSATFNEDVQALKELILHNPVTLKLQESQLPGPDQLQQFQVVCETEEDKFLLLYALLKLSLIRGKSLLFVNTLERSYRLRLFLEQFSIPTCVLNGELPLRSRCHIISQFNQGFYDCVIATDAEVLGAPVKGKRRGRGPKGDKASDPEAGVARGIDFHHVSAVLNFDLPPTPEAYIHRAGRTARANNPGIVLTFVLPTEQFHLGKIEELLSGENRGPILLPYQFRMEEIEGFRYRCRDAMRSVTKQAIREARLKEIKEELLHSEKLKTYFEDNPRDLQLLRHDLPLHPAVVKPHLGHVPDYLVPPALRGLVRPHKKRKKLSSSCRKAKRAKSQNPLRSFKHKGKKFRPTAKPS
Put plainly: EMSA; 5 mM Mg2+; poly(dI-dC); supershifted by DDX56 antibody; LightShift EMSA kit, 20 uL: 2 uL 10x binding buffer, 1 uL 50% glycerol, 1 uL 100 mM MgCl2, 1 ug/uL poly(dI-dC), 1 uL 1% NP-40, 2 ug protein; supershift at room. The conditions noted are these: protein: commercial; tags: N-terminal His; label: 5' biotin; blunt. (Mobility shift assays separate free from complexed probe on a gel.)

B1: MIST1 promoter -160 to -117 (dsDNA)
DNA 1: GCCACCTGGTCCGGGAGCCCCAGGCGCCGGCCTCCCGCCCGCCC
DNA 2: GGGCGGGCGGGAGGCCGGCGCCTGGGGCTCCCGGACCAGGTGGC
Consider B1, for which the binding result was “binds”.
